From the supplement of paper PMC7125110
± gives the standard error. Fewer inactive variants are shown than the library holds.

B1: glmS ribozyme (parent)
chain: AUAAAAGCGCCAGAACUACAGAAAUGUAGUUGACGAGGAGGAGGUUUAUCGAAUUUUCGGCGGAUGCCUCCAAA

Variants of: B1
Assay: self-cleavage kobs at 2500 uM GlcN6P; higher = faster cleavage; RNA array
Details: with glucosamine-6-phosphate
How it was run: (§1)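 Glucosamine-6-phosphate in HEPES/KCl/Mg(OAc)2 buffer, at 40 μM to 10 mM, was flowed over barcoded ribozyme variants transcribed in situ by E. coli RNA polymerase on sequenced MiSeq chips. Tracking was through a hybridised Cy3 probe at 37 °C. kobs, kcat and KM came from exponential decay fits and weighted Michaelis–Menten fits of normalised per-tile medians.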

Compared with A12G G43C U45C C61G, C11U A15G G43A C67G is higher in “self-cleavage kobs at 2500 uM GlcN6P” value: under 1e-05 s⁻¹ for the first, 0.000114 ± 3.9e-05 s⁻¹ for the second.

Compared with A12C U31C U56C, G9A A15G G26U is lower in “self-cleavage kobs at 2500 uM GlcN6P” value: 0.000204 ± 6.7e-05 s⁻¹ for the first, under 1e-05 s⁻¹ for the second.

C10U A12C G66A and A12G U54C U65G are within error of each other in “self-cleavage kobs at 2500 uM GlcN6P” value: 3.37e-05 ± 1.5e-05 s⁻¹ for the first, 3.01e-05 ± 1.2e-05 s⁻¹ for the second.

C8A G37A G41U A48U C50G U55A and C11A C16U A23C A39G U54C C58U cannot be ordered by “self-cleavage kobs at 2500 uM GlcN6P” value: under 1e-05 s⁻¹ for the first, under 1e-05 s⁻¹ for the second.

Going from G7U G35U G37C U46C C68A to A12G G38U C67G C68A, the “self-cleavage kobs at 2500 uM GlcN6P” value rises from under 1e-05 s⁻¹ to 9.28e-05 ± 2.6e-05 s⁻¹.

Compared with G9C A48C G51C, A12C A48G C58G is higher in “self-cleavage kobs at 2500 uM GlcN6P” value: under 1e-05 s⁻¹ for the first, 4.08e-05 ± 1.8e-05 s⁻¹ for the second.

G9C G40U C67U and G9C G13C C34A G62C A64G cannot be ordered by “self-cleavage kobs at 2500 uM GlcN6P” value: under 1e-05 s⁻¹ for the first, under 1e-05 s⁻¹ for the second.

C10G A14U G32U C61A G63A and G9U G40A G60U cannot be ordered by “self-cleavage kobs at 2500 uM GlcN6P” value: under 1e-05 s⁻¹ for the first, under 1e-05 s⁻¹ for the second.

C8A U46G C61A U65C and C11A A12U G32U C50U U56A C58A cannot be ordered by “self-cleavage kobs at 2500 uM GlcN6P” value: under 1e-05 s⁻¹ for the first, under 1e-05 s⁻¹ for the second.

Going from C8U G9A U45A U69C to C10A U47A C70A, the “self-cleavage kobs at 2500 uM GlcN6P” value rises from under 1e-05 s⁻¹ to 0.000334 ± 0.00015 s⁻¹.

G7U U46G A48U and G9U G63C G66U C70A cannot be ordered by “self-cleavage kobs at 2500 uM GlcN6P” value: under 1e-05 s⁻¹ for the first, under 1e-05 s⁻¹ for the second.

C8G G35A G43C U69G and C8U G13U A39U A42G cannot be ordered by “self-cleavage kobs at 2500 uM GlcN6P” value: under 1e-05 s⁻¹ for the first, under 1e-05 s⁻¹ for the second.

Compared with C11U A14G U49C, A12U A39U A48U is higher in “self-cleavage kobs at 2500 uM GlcN6P” value: under 1e-05 s⁻¹ for the first, 0.000147 ± 2.7e-05 s⁻¹ for the second.

Going from G9C A42U G44U to A12C U46A C71A, the “self-cleavage kobs at 2500 uM GlcN6P” value rises from under 1e-05 s⁻¹ to 6.86e-05 ± 2.4e-05 s⁻¹.

G9U C10G C16U and C10U C11G U57A cannot be ordered by “self-cleavage kobs at 2500 uM GlcN6P” value: under 1e-05 s⁻¹ for the first, under 1e-05 s⁻¹ for the second.

C8A A15G G32U G44U C67A and C10U C11A G41A U55C C58G cannot be ordered by “self-cleavage kobs at 2500 uM GlcN6P” value: under 1e-05 s⁻¹ for the first, under 1e-05 s⁻¹ for the second.

First: C10U G35C G38A A52C G62U
Second: A12G G62A U69A C70A
The “self-cleavage kobs at 2500 uM GlcN6P” value of the first is lower: under 1e-05 s⁻¹ for the first, 0.000135 ± 5.1e-05 s⁻¹ for the second.

Compared with C10A C50U C68U, C8G G9A A14U U31G A39C U47A A64G C70U is lower in “self-cleavage kobs at 2500 uM GlcN6P” value: 6.13e-05 ± 2.7e-05 s⁻¹ for the first, under 1e-05 s⁻¹ for the second.

Going from A12U A33U G37U U56A to C10A G66A C68A, the “self-cleavage kobs at 2500 uM GlcN6P” value rises from under 1e-05 s⁻¹ to 5.96e-05 ± 2.6e-05 s⁻¹.

Going from A12C A14G U69G to C8U U46G C61U, the “self-cleavage kobs at 2500 uM GlcN6P” value falls from 0.000112 ± 3.2e-05 s⁻¹ to under 1e-05 s⁻¹.

Compared with C8A A33C U45C G59A, A12G G29U U47G is higher in “self-cleavage kobs at 2500 uM GlcN6P” value: under 1e-05 s⁻¹ for the first, 6.74e-05 ± 1.5e-05 s⁻¹ for the second.

C11G G51A A64C and G9C C16A C34A G44C A64G cannot be ordered by “self-cleavage kobs at 2500 uM GlcN6P” value: under 1e-05 s⁻¹ for the first, under 1e-05 s⁻¹ for the second.

Going from A12C U56A C58G to G9U A15C C68U, the “self-cleavage kobs at 2500 uM GlcN6P” value falls from 0.00043 ± 8.1e-05 s⁻¹ to under 1e-05 s⁻¹.

G7U G32C G40U U45G and C11U G40A U46A G59C cannot be ordered by “self-cleavage kobs at 2500 uM GlcN6P” value: under 1e-05 s⁻¹ for the first, under 1e-05 s⁻¹ for the second.

Going from C10A A36C C50G to A12G U56G G66A, the “self-cleavage kobs at 2500 uM GlcN6P” value falls from 0.000367 ± 0.00015 s⁻¹ to 0.000134 ± 2.5e-05 s⁻¹ (2.7-fold).

C10G U47C A53U U54A C70U and G9A A14G G41U cannot be ordered by “self-cleavage kobs at 2500 uM GlcN6P” value: under 1e-05 s⁻¹ for the first, under 1e-05 s⁻¹ for the second.

C8A G32U G59A and C10U C11U G13C A42U U54A cannot be ordered by “self-cleavage kobs at 2500 uM GlcN6P” value: under 1e-05 s⁻¹ for the first, under 1e-05 s⁻¹ for the second.

First: C8U A12U C34A
Second: C10A G62C C68A
The “self-cleavage kobs at 2500 uM GlcN6P” value of the first is lower: under 1e-05 s⁻¹ for the first, 0.00024 ± 0.00011 s⁻¹ for the second.

G7U U31C G43A and A12U C34A A48U cannot be ordered by “self-cleavage kobs at 2500 uM GlcN6P” value: under 1e-05 s⁻¹ for the first, under 1e-05 s⁻¹ for the second.

Going from G9C C11A G63C to C10U C11A C70A, the “self-cleavage kobs at 2500 uM GlcN6P” value rises from under 1e-05 s⁻¹ to 7.8e-05 ± 2.7e-05 s⁻¹.

Compared with C10G G41A, A12U G37A C70G is higher in “self-cleavage kobs at 2500 uM GlcN6P” value: under 1e-05 s⁻¹ for the first, 0.00013 ± 3.4e-05 s⁻¹ for the second.

A12G A36C C70U and G9C G32C C70A cannot be ordered by “self-cleavage kobs at 2500 uM GlcN6P” value: under 1e-05 s⁻¹ for the first, under 1e-05 s⁻¹ for the second.

C10G A14U G35U G60C and C10G G44U C71A cannot be ordered by “self-cleavage kobs at 2500 uM GlcN6P” value: under 1e-05 s⁻¹ for the first, under 1e-05 s⁻¹ for the second.

A12C A15U G62A and G9U G29U U31A U46A cannot be ordered by “self-cleavage kobs at 2500 uM GlcN6P” value: under 1e-05 s⁻¹ for the first, under 1e-05 s⁻¹ for the second.

Going from C11A C16U U54G G59A to A12G G40U C67U, the “self-cleavage kobs at 2500 uM GlcN6P” value falls from 0.000138 ± 3e-05 s⁻¹ to under 1e-05 s⁻¹.

C11G G40A A53U and G9C U46A C71U cannot be ordered by “self-cleavage kobs at 2500 uM GlcN6P” value: under 1e-05 s⁻¹ for the first, under 1e-05 s⁻¹ for the second.

Compared with G9C A15C G44A G60U C61G, C11U A14G A33G C68A C71A is higher in “self-cleavage kobs at 2500 uM GlcN6P” value: under 1e-05 s⁻¹ for the first, 0.000684 ± 0.00034 s⁻¹ for the second.

C8G A39U C71A and G7U U55A U56A cannot be ordered by “self-cleavage kobs at 2500 uM GlcN6P” value: under 1e-05 s⁻¹ for the first, under 1e-05 s⁻¹ for the second.

G7U U31G C61A C70A and C10U U31G U49A G62U cannot be ordered by “self-cleavage kobs at 2500 uM GlcN6P” value: under 1e-05 s⁻¹ for the first, under 1e-05 s⁻¹ for the second.

C10U G13A A33U and G9A G29C G35A G44U U46A A64C cannot be ordered by “self-cleavage kobs at 2500 uM GlcN6P” value: under 1e-05 s⁻¹ for the first, under 1e-05 s⁻¹ for the second.

G9C A33C A48G U54G and C10A U47C G62U cannot be ordered by “self-cleavage kobs at 2500 uM GlcN6P” value: under 1e-05 s⁻¹ for the first, under 1e-05 s⁻¹ for the second.

Variants of: B1
Assay: self-cleavage kobs at 10000 uM GlcN6P; higher = faster cleavage; RNA array
Details: with glucosamine-6-phosphate
How it was run: as §1

Compared with A12G G43C U45C C61G, C11U A15G G43A C67G is higher in “self-cleavage kobs at 10000 uM GlcN6P” value: under 1e-05 s⁻¹ for the first, 0.000119 ± 3.5e-05 s⁻¹ for the second.

C10U C11G U57A and C8A A15G G32U G44U C67A cannot be ordered by “self-cleavage kobs at 10000 uM GlcN6P” value: under 1e-05 s⁻¹ for the first, under 1e-05 s⁻¹ for the second.

First: G9U A15C C68U
Second: A12U G37A C70G
The “self-cleavage kobs at 10000 uM GlcN6P” value of the first is lower: under 1e-05 s⁻¹ for the first, 9.11e-05 ± 2.1e-05 s⁻¹ for the second.

In the case of C10A U47C G62U, the “self-cleavage kobs at 10000 uM GlcN6P” value is reported as under 1e-05 s⁻¹.
